Test results as given in the supplement of paper PMC9942255.
Several values for one entry are separate records, joined by “and”; a condition that tells them apart may be missing. Equal values may be shown once.

Tested on: Bacillus subtilis DB104 (SP-AmyQ fusion secretion)
Test: AmyQ secretion efficiency, weighted average sort bin (1 = best secretion, 10 = worst) (bin number (weighted average, 1-10)); higher = lower secretion efficiency
Outline: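 With fluorescein-starch as substrate, a B. subtilis DB104 library expressing mature AmyQ fused to designed signal peptides (integrated at amyE) was encapsulated at about 0.3 cells per ~65 nL alginate bead. After about 13 h at room temperature, beads were nile red stained, and occupied beads were sorted by large-particle flow cytometry into 10 equally populated bins by green/red fluorescence ratio. Illumina sequencing of the amplicons in each bin was used to calculate the secretion score, which is the read-frequency-weighted average bin number, normalised to beads per bin, with low-abundance sequences left out.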

Q: For MTKYTVIASILLSFLSVLSGGHHESKAFPV, which AmyQ secretion efficiency is on record?
A: The AmyQ secretion efficiency was 6.55.

Q: Which AmyQ secretion efficiency does the source give for MKLSVKIAGVLTVAAAAMTAKMYDTAKGN here?
A: The AmyQ secretion efficiency was 4.44.

Q: How did the AmyQ secretion efficiency turn out when MPIKKKVMMCLAVTLVFGSMSFPTLTNSGGFSG was run?
A: The AmyQ secretion efficiency was 3.08.

Q: With MRKKHQTISLLIIFLLASAVLAKPIEAHTV as the sequence, how does the AmyQ secretion efficiency read?
A: Its AmyQ secretion efficiency is 2.69.

Q: For MKKAKKKKLSLGLVFGFSYGAGHVAEAKTK, which AmyQ secretion efficiency is on record?
A: The AmyQ secretion efficiency was 7.52.

Q: Which AmyQ secretion efficiency does the source give for MKKIMIFLTSFMLLAMTGQTALAKDV here?
A: Its AmyQ secretion efficiency is 3.4.

Q: For MRKRKVVGFLSVLGLAAVFPLTAQAEKA, which AmyQ secretion efficiency is on record?
A: The AmyQ secretion efficiency was 3.02.

Q: With MKKKLAAGLTASAIVGTTLVIVTPAEAATI as the sequence, how does the AmyQ secretion efficiency read?
A: Its AmyQ secretion efficiency is 3.35.

Q: How did the AmyQ secretion efficiency turn out when MHLIRAAGAVCLAVVLIAGCRFNEDQHQPEGENT was run?
A: The AmyQ secretion efficiency was 5.35.

Q: Which AmyQ secretion efficiency does the source give for MRHKIITFILAVVVIIIIGNMIGGGGGSEETSK here?
A: The AmyQ secretion efficiency was 7.2.

Q: How did the AmyQ secretion efficiency turn out when MMIKQCYGCKSLLVFGTTAAHAEET was run?
A: Its AmyQ secretion efficiency is 7.62.

Q: Which AmyQ secretion efficiency does the source give for MKKWIYVVLVLSIAGIGGFSVHDASS here?
A: The AmyQ secretion efficiency was 7.82.

Q: For MKKIWIGMLAAAVLLLMVPKVDLADAA, which AmyQ secretion efficiency is on record?
A: The AmyQ secretion efficiency was 4.2.

Q: MKKVMLATALFLGLTPANAADL was tested. Which AmyQ secretion efficiency did it give?
A: Its AmyQ secretion efficiency is 8.14.

Q: For MKWMCSICCAAVLLAGGAAQADDE, which AmyQ secretion efficiency is on record?
A: The AmyQ secretion efficiency was 6.18.

Q: Which AmyQ secretion efficiency does the source give for MKWMCSICCAAVLLAGGADQAEAV here?
A: The AmyQ secretion efficiency was 2.46.

Q: For MKWMCSICCAAVLLAGGACQAEAV, which AmyQ secretion efficiency is on record?
A: The AmyQ secretion efficiency was 3.36.

Q: How did the AmyQ secretion efficiency turn out when MLKRTSFVSSLFISSAVLLSILKKKGQAHAQSA was run?
A: Its AmyQ secretion efficiency is 7.

Q: For MGLGKKLSVAVAASFMSLSISLPGVQAAPG, which AmyQ secretion efficiency is on record?
A: Its AmyQ secretion efficiency is 2.04.

Q: Which AmyQ secretion efficiency does the source give for MKKAFILSAAAAVGLFTFGGVQQISAKEL here?
A: Its AmyQ secretion efficiency is 3.06.

Q: With MRKSLITLGLASVIGTSSFLIPFTSKTASAETL as the sequence, how does the AmyQ secretion efficiency read?
A: The AmyQ secretion efficiency was 2.73 and 5.9 and 4.16.

Q: How did the AmyQ secretion efficiency turn out when MKKLLAAGIIGLLTVQTDQPSFAAEK was run?
A: Its AmyQ secretion efficiency is 4.21.

Q: How did the AmyQ secretion efficiency turn out when MKKAFLVFLSVVLVTTVFLVKQQESVAQKKQL was run?
A: Its AmyQ secretion efficiency is 4.43.

Q: With MRPVFPLILSAVLFLSCFFGARQTEASMSKR as the sequence, how does the AmyQ secretion efficiency read?
A: Its AmyQ secretion efficiency is 2.44.

Q: With MKNMSCKLVVSVTLFFSFLRKKKKKAHAQNS as the sequence, how does the AmyQ secretion efficiency read?
A: The AmyQ secretion efficiency was 6.96.

Q: MRPVFPLILSAVLFLSCFFGARQTELSASKR was tested. Which AmyQ secretion efficiency did it give?
A: Its AmyQ secretion efficiency is 3.47.

Q: For MKKTIMSFVAVAALSTTAFGAHPTASAKEI, which AmyQ secretion efficiency is on record?
A: The AmyQ secretion efficiency was 2.53.

Q: Which AmyQ secretion efficiency does the source give for MIAYFKCLLLVTIMFLGVLFGMQQANHG here?
A: Its AmyQ secretion efficiency is 6.01.

Q: Which AmyQ secretion efficiency does the source give for MRSKKLWISLLFALTLIFTMAFSNMSAQWAGK here?
A: Its AmyQ secretion efficiency is 6.53.

Q: Which AmyQ secretion efficiency does the source give for MRSYIKVLTMCFLGLILFVPTALQDNS here?
A: Its AmyQ secretion efficiency is 6.11.

Q: How did the AmyQ secretion efficiency turn out when MAIIIAIIAAVIVIAALITFNVRNFSPG was run?
A: Its AmyQ secretion efficiency is 6.5.

Q: For MNKRFFGPIILAFILFAGAIAIPS, which AmyQ secretion efficiency is on record?
A: Its AmyQ secretion efficiency is 7.33.

Q: With MRSYIKVLTMCFLGLILFVPTALTDNS as the sequence, how does the AmyQ secretion efficiency read?
A: Its AmyQ secretion efficiency is 5.81.

Q: Which AmyQ secretion efficiency does the source give for MNKLKRLSMLTVMIASVFIFSSHSLAAQY here?
A: The AmyQ secretion efficiency was 2.4.

Q: How did the AmyQ secretion efficiency turn out when MKKKLAAGLTASAIVGTTLVVTPPTAPGGAEAATI was run?
A: The AmyQ secretion efficiency was 6.5.

Q: Which AmyQ secretion efficiency does the source give for MKKVLMAFIICLSLILSVLAAPPSGAKQESV here?
A: The AmyQ secretion efficiency was 2.57.

Q: How did the AmyQ secretion efficiency turn out when MKSCKQLIVCSLAAILLLRRKVSFAADS was run?
A: The AmyQ secretion efficiency was 7.65.

Q: With MKKLVLCVSILAVILSGVALTDED as the sequence, how does the AmyQ secretion efficiency read?
A: Its AmyQ secretion efficiency is 6.4.

Q: For MKKQIITATTAVVLGSTLFAGAYSAQSI, which AmyQ secretion efficiency is on record?
A: The AmyQ secretion efficiency was 5.58.

Q: MRPVFPLILSAVLFLSCFFGARQTEASAEEE was tested. Which AmyQ secretion efficiency did it give?
A: Its AmyQ secretion efficiency is 2.93.

Q: With MLKKKWMVKRLAGCLAAGGFSYNAFATEN as the sequence, how does the AmyQ secretion efficiency read?
A: Its AmyQ secretion efficiency is 7.03.

Q: With MKKAFILSAAAAVGLFTFGGVQQSSAKEL as the sequence, how does the AmyQ secretion efficiency read?
A: The AmyQ secretion efficiency was 4.21.

Q: Which AmyQ secretion efficiency does the source give for MKNRKRKLVVSVTLFFSFLTIGPLAHAQNS here?
A: Its AmyQ secretion efficiency is 1.21.

Q: For MKRFLIGAGVAAVILSGWTIADHQTHSQEM, which AmyQ secretion efficiency is on record?
A: Its AmyQ secretion efficiency is 5.66.

Q: MKKKQVLALTAAAGLGLTALHSAPAAKAAPL was tested. Which AmyQ secretion efficiency did it give?
A: Its AmyQ secretion efficiency is 2.4.

Q: For MKLAKRVSALTPSTTLAITGFVGSTTFTAPTAKAKEL, which AmyQ secretion efficiency is on record?
A: Its AmyQ secretion efficiency is 6.19.

Q: How did the AmyQ secretion efficiency turn out when MSTGTSGSLISSLIVLSTVVISSLLFPGAAGASSK was run?
A: Its AmyQ secretion efficiency is 2.34.

Q: How did the AmyQ secretion efficiency turn out when MSMWMITIAMLILAGIALFVFISPLKSHKT was run?
A: Its AmyQ secretion efficiency is 7.42.

Q: With MPIKKKVMMCSKVTLVFGSMSFPTLTNSGGFKE as the sequence, how does the AmyQ secretion efficiency read?
A: Its AmyQ secretion efficiency is 7.22.

Q: MTSSGGMFIVFICFFVLFSVHPIAAAAADS was tested. Which AmyQ secretion efficiency did it give?
A: The AmyQ secretion efficiency was 6.41.

Q: How did the AmyQ secretion efficiency turn out when MKRFSTAYTTGGILCSAAVFLIGAPSRALGAEV was run?
A: Its AmyQ secretion efficiency is 8.46.

Q: Which AmyQ secretion efficiency does the source give for MRSKKLWISLLFALTLIFAMAFIAMIAQAAGK here?
A: The AmyQ secretion efficiency was 2.

Q: Which AmyQ secretion efficiency does the source give for MRMLWRSLALCGLALPCAQAAEP here?
A: Its AmyQ secretion efficiency is 6.75.
